Literature values, collected in article PMC1513386.
Like-named read-outs stand apart in the source and are kept apart here.

Experiments:
Glu115 = Glu115 (UniProt position 142, SKKPKENPGPA); test: NMR
Glu96 = Glu96 (UniProt position 123, DHYLLEFPTFP); test: NMR
Asp101 [1] = target: Asp101 (UniProt position 148, IYKTTDHYQTF); details: not stated (values are paired with the folded structure 1A2P; ref 20 covers native and denatured states)
Asp54 = Asp54 (UniProt position 101, KSIGGDIFSNR); details: not stated (values are paired with the folded structure 1A2P; ref 20 covers native and denatured states)
Asp93 = Asp93 (UniProt position 140, ILYSSDWLIYK); details: not stated (values are paired with the folded structure 1A2P; ref 20 covers native and denatured states)
Glu73 = Glu73 (UniProt position 120, GRTWREADINY); details: not stated (values are paired with the folded structure 1A2P; ref 20 covers native and denatured states)
Asp21 = Asp21 (UniProt position 41, VSILSDASFNQ); test: NMR
Asp30 = Asp30 (UniProt position 50, NQCSTDSGYSM); test: NMR
Asp72 = Asp72 (UniProt position 92, NPPNCDLTVPT); test: NMR
Asp101 [2] = target: Asp101 (UniProt position 129, GTVKSDGGTYD)
Asp106 = Asp106 (UniProt position 134, DGGTYDIYTTT)
Asp11 = Asp11 (UniProt position 39, WQNWTDGGGIV)
Asp83 = Asp83 (UniProt position 111, EYYVVDSWGTY)
Glu172 = Glu172 (UniProt position 200, QVMATEGYQSS)
Asp44 = Asp44 (UniProt position 44, AARQPDLIPLL); test: NMR
Asp61 = Asp61 (UniProt position 61, VMGLVDAIPMI); test: NMR
Asp7 = Asp7 (UniProt position 7, ENLNMDLLYMA); test: NMR
Glu2 = Glu2 (UniProt position 2, ----MENLNMD); test: NMR
Glu37 = Glu37 (UniProt position 37, GGKFLEGAARQ); test: NMR
Asp18 = Asp18 (UniProt position 36, KRLGLDNYRGY); test: NMR
Asp48 = Asp48 (UniProt position 66, TNRNTDGSTDY); test: NMR
Asp66 = Asp66 (UniProt position 84, RWWCNDGRTPG); test: NMR
Asp87 = Asp87 (UniProt position 105, ALLSSDITASV); test: NMR
Glu35 = Glu35 (UniProt position 53, CAAKFESNFNT); test: NMR
Glu7 = Glu7 (UniProt position 25, VYGRCELAAAM); test: NMR
Asp10 = Asp10 (UniProt position 10, VEIFTDGSCLG); test: NMR
Asp102 = Asp102 (UniProt position 102, PVKNVDLWQRL); test: NMR
Asp148 = Asp148 (UniProt position 148, NPTLEDTGYQV); test: NMR
Asp70 = Asp70 (UniProt position 70, VILSTDSQYVR); test: NMR
Asp59 = Asp59 (UniProt position 80, VCCSTDKCN--)
Asp26 = Asp26 (UniProt position 26, KLVVVDFSATW)
Glu6 = Glu6 (UniProt position 6, MVKQIESKTAF); details: listed under PDB 1TRS; redox state not stated in the article, and 1TRS is the oxidised form (inferred)
Glu68 = Glu68 (UniProt position 68, QDVASECEVKC)
[3] = listed under PDB 1TRS, redox state not stated in the article, and 1TRS is the oxidised form (inferred)
[4] = listed under PDB 1TRW, redox state not stated in the article, and 1TRW is the reduced form (inferred)

For “Alpha-sarcin (cytotoxic ribonuclease) (Aspergillus giganteus)”, the pKa (Glu115) is listed as 4.90 and the pKa (Glu96) is listed as 5.10.

In the case of “Barnase (ribonuclease) (Bacillus amyloliquefaciens)”, the pKa (Asp101 [1]) is given as 2.00, the pKa (Asp54) is given as 2.00 and the pKa (Asp93) is given as 2.00. For the same substance, the pKa (Glu73) was 2.10.

For “Beta-elicitin cryptogein (Phytophthora cryptogea)”, the pKa (Asp21) is listed as 2.50, the pKa (Asp30) is listed as 2.50 and the pKa (Asp72) is listed as 2.60.

For “Endo-1,4-beta-xylanase (Bacillus circulans xylanase) (Bacillus circulans)”, the pKa (Asp101 [2]) is listed as 2.00, the pKa (Asp106) is listed as 2.70 and the pKa (Asp11) is listed as 2.50. The pKa (Asp83) was 2.00 and the pKa (Glu172) was 6.70.

In the case of “F1Fo ATP synthase subunit c (Escherichia coli)”, the pKa (Asp44) is given as 5.60, the pKa (Asp61) is given as 7.00 and the pKa (Asp7) is given as 5.60. For the same substance, the pKa (Glu2) was 5.50 and the pKa (Glu37) was 5.50.

In the case of “Lysozyme C (turkey egg white) (Meleagris gallopavo)”, the pKa (Asp18) is listed as 2.70, the pKa (Asp48) is listed as 2.50 and the pKa (Asp66) is listed as 2.00. The pKa (Asp87) was 2.10, the pKa (Glu35) was 6.10 and the pKa (Glu7) was 2.70.

In the case of Ribonuclease HI (Escherichia coli), the pKa (Asp10) is listed as 6.10, the pKa (Asp102) is listed as 2.00 and the pKa (Asp148) is listed as 2.00. The pKa (Asp70) was 2.60.

In the case of “Snake cardiotoxin (PDB 1KXI, cardiotoxin V / A5) (Naja atra)”, the pKa (Asp59) is listed as 2.30.

In the case of Thioredoxin (Homo sapiens), the pKa (Asp26; [3]) is given as 8.10, the pKa (Asp26; [4]) is given as 9.90 and the pKa (Glu6) is given as 4.90. For the same substance, the pKa (Glu68; [3]) was 5.10 and the pKa (Glu68; [4]) was 4.90.
